Reference: publication PMC11178898, “A clade of receptor-like cytoplasmic kinases and 14-3-3 proteins coordinate inositol hexaphosphate accumulation” (Nature Communications, 2024)
Blank lines part the entries; values can stand above or below the molecule they belong to.

How the values were obtained:
IPK2β, Split-LUC fusion = assay: Split-LUC; conditions: cluc-IPK2β, 35S::IPCK1-flag co-infiltrated (1:1:2), parent value is P2 (nluc-GRF4, cluc-IPK2β …), parent: 7442.09
IPK1-HIS = molecular target: T1, IPK1-HIS (Arabidopsis thaliana, UniProt Q93YN9 1-451); assay: pull-down; in vitro; GST- and HIS-tagged proteins from E. coli BL21 (DE3); bait on GST or Ni-NTA beads, incubated with the protein of the other tag on ice for 2 h, washed with PBS, blot with anti-HIS and anti-GST; conditions: both partners purified
T1 construct: IPK1, inositol polyphosphate kinase, Arabidopsis thaliana; the CDS was cloned into pCOLD-TF; source: E. coli BL21 (DE3), pCOLD-TF, purified
T1 sequence (looked up): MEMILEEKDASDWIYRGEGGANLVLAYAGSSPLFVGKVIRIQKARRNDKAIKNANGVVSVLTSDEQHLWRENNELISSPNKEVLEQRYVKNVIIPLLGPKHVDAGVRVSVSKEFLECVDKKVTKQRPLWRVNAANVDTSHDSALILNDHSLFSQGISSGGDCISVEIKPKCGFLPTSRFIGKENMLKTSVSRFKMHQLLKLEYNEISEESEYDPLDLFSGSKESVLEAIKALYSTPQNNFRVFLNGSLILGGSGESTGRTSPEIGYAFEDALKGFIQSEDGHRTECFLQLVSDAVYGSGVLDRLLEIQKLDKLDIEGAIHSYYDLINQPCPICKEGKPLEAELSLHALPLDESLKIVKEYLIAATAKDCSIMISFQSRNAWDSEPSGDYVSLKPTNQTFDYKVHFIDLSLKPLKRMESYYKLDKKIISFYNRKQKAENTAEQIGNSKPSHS

response (cps (average)) (IPK2β, Split-LUC fusion; P3: nluc-GRF4 S242A, Total cps 452167, Areas 116.3): 3890
Molecule: GRF4, Split-LUC fusion (from UniProt P46077) S242A

response (cps (average)) (IPK2β, Split-LUC fusion; P4: nluc-GRF4 S242D, Total cps 2045502, Areas 266): 7690
Molecule: GRF4, Split-LUC fusion (from UniProt P46077) S242D

binding result (IPK1-HIS): binds
B1: GRF4-GST (natural protein, Arabidopsis thaliana, UniProt P46077 1-267, looked up)
chain: MAAPPASSSAREEFVYLAKLAEQAERYEEMVEFMEKVAEAVDKDELTVEERNLLSVAYKNVIGARRASWRIISSIEQKEESRGNDDHVTTIRDYRSKIESELSKICDGILKLLDTRLVPASANGDSKVFYLKMKGDYHRYLAEFKTGQERKDAAEHTLTAYKAAQDIANAELAPTHPIRLGLALNFSVFYYEILNSPDRACNLAKQAFDEAIAELDTLGEESYKDSTLIMQLLRDNLTLWTSDMQDESPEEIKEAAAPKPAEEQKEI
notes: GRF4, 14-3-3 protein, Arabidopsis thaliana; the CDS was cloned into pGEX-4T-1; source: E. coli BL21 (DE3), held on GST beads
